Measured values from PMC8754651 (2021).

B1: human RPB6 (residues 1–24), NTT peptide [human] / human TFIIH p62 PH domain (PH-D) (residues 1–108) [human] (parent complex)
chain 1: MSDNEDNFDGDDFDDVEEDEGLDD
chain 2: MATSSEEVLLIVKKVRQKKQDGALYLMAERIAWAPEGKDRFTISHMYADIKCQKISPEGKAKIQLQLVLHAGDTTNFHFSNESTAVKERDAVKDLLQQLLPKFKRKAN

Variants of: B1
Experiment: ITC

Row | Variant | Kd [µM]
1 | chain 1 F13A, chain 1 V16A | 7.35
2 | chain 1 F8A | 2.85

Results, then the variant that gave them:

Row | Kd [µM] | Variant
3 | 3.65 | chain 1 S2A
4 | 7.14 | chain 1 V16A
